Experimental findings from patent US20250163136A1 (FRAUNHOFER GESELLSCHAFT ZUR F RDERUNG DER ANGEWANDTEN …, published 2025) are described below.

Test [1] has as its target T1, isoD38-TTR(35-43)-PEG-Biotin (human, reading uncertain).
T1 construct: KAAXDTWEP; also called isoaspartate-containing TTR(35-43)-peptide
T1 peptide: {Biotin-PEG}-KAA[βAsp]DTWEP-NH2
As to the kind of experiment: SPR, BIAcore 3000, 25 °C; antibody captured on goat anti-mouse IgG (CM5 chip), peptide injected (five consecutive injections, 2 nM to 512 nM). The protocol:
(§1) Antibody binding kinetics to TTR(35-43)-PEG-Biotin (SEQ ID NO: 5) and isoD38-TTR(35-43)-PEG-Biotin (SEQ ID NO: 6) were analyzed by using SPR on a BIAcore 3000 device at 25° C. For this purpose, the surface of a CM5 sensor chip (Cytiva) was modified with a goat anti-mouse antibody using NHS/EDC chemistry. To immobilize the anti-mouse IgG, the carboxymethylated dextran surface of the sensor chip was activated by mixing 0.1 M N-hydroxysuccinimide (NHS) with 0.4 M N-ethyl-N′-(dimethylaminopropyl) carbodiimide hydrochloride (EDC) 1:1. EDC/NHS was applied to the sensor chip with a flow rate of 20 μL/min for 7 minutes. Goat anti-mouse IgG was diluted to 50 μg/mL in 10 mM sodium acetate, pH 5.5, and injected for 2×4 minutes contact time with a flow rate of 30 μL/min. Deactivation was done by applying 1 M ethanolamine pH 8.5 with a flow rate of 10 μL/min for 2×7 minutes contact time. About 20000 RU of the goat anti-mouse antibody were immobilized onto the chip surface.
On the technique in general: Surface plasmon resonance follows binding to a sensor surface in real time, without labels.

For test [2], the target named is T2, freshly dissolved Aβ(1-42).
T2 construct: Dot blot lanes 8 and 9 (with m12); also called monomeric peptides of Aβ
T2 sequence (peptide, as listed by the source): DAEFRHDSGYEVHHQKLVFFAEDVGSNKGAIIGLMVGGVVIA
As to the kind of experiment: dot blot. The protocol: (§2) 0.5 μg of recombinantly expressed TTR proteins (TTRwt (SEQ ID NO: 1), TTR-V30M (SEQ ID NO: 7), or TTR-V122I (SEQ ID NO: 8)), ATTR fibrils or 0.5 μg of either freshly dissolved Aβ(1-42) (SEQ ID NO: 9) or aggregated Aβ(1-42) with confirmed isoAsp-content (SEQ ID NO: 10) were spotted on nitrocellulose membranes. Membranes were blocked for 1 hour in blocking solution (5% (w/v) milk powder in TBS+0.05% (v/v) Tween-20 (Carl Roth)). […] Alkaline phosphatase-conjugated, anti-mouse or rabbit IgG antibodies (abeam) in combination with chromogenic substrates BCIP and NBT (Carl Roth) were subsequently used for detection.

In test [3] the target is T3, aggregated Aβ(1-42) with confirmed isoAsp-content (isoD7-Aβ(1-42)) (X at position 7 is L-isoAsp).
T3 construct: Aggregated amyloid fibrils; dot blot lanes 8 and 9 (with m11); also called isoD7-AB; aggregated Aβ1-42 (verified isoD content)
T3 sequence (peptide, as listed by the source): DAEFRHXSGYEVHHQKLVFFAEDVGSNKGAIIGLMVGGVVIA
As to the kind of experiment: dot blot. As to the method:
as §2

For test [4], the target named is T4, TTR(35-43)-PEG-Biotin (human, reading uncertain).
T4 construct: also called non-modified peptide TTR(35-43)
T4 peptide: {Biotin-PEG}-KAADDTWEP-NH2
As to the kind of experiment: SPR, BIAcore 3000, 25 °C; antibody captured on goat anti-mouse IgG (CM5 chip), peptide injected (five consecutive injections, 512 nM to 131 µM). As to the method: as §1

Test [5] has as its target T4, TTR(35-43)-PEG-Biotin. As to the kind of experiment: SPR, BIAcore 3000, 25 °C; antibody captured on goat anti-mouse IgG (CM5 chip), peptide injected (multicycle kinetics, 1 µM to 200 µM). The protocol: as §1
The target in test [6] is T1, isoD38-TTR(35-43)-PEG-Biotin. As to the kind of experiment: SPR, BIAcore 3000, 25 °C; antibody captured on goat anti-mouse IgG (CM5 chip), peptide injected (multicycle kinetics, 10 nM to 100 µM). The protocol:
as §1

Numbered stars: 1 amine (or outer) side, 2 acyl side, 3 side chain; on linkers, the order of the positions; unused ones are H or OH. Square brackets hold non-standard residues; d marks the D form. * marks the point of attachment. Biotin = O=C1N[C@H]2[C@H](CS[C@H]2CCCCC(=O)*)N1; βAsp = O=C(O)[C@H](CC(=O)[*:2])N[*:1]; PEG = not defined here

B1: monoclonal antibody 2F2 (antibody, V domains shown)
VH: DVQLVESGGGLVQPGGSRKLSCAASGFTFSSFAMHWVRQAPDKGLEWVAFISSGSNTIYYADTVKGRFTVSRDNPKNTLFLQMTSLRSEDTAMYYCASNSYYGMDYWGQGTSVTVSS
VL: NIMMTQSPSSLAVSAGEKVTMSCKSSQSVLYSSNQKNYLAWYQQKPGQSPKLLIYWASTRESGVPDRFTGSGSGTDFTLTISSVQAEDLAVYYCHQYLSSRTFGAGTKLELKR
notes: also called isoD38-TTR-specific antibody 2F2; TTR mAb 2F2
Usually Kd stands for the constant that tells how readily two partners part at equilibrium. A low value points to tighter binding. With B1, the Kd stood at 1.55 nM in test [1] and 719 nM in test [4]. The binding result in test [2] and in test [3] was “no binding (tested: 0.5 µg peptide spotted; antibody 1 µg/mL)” in each case.

B2: monoclonal antibody 4D4 (antibody, V domains shown)
VH: QVQLQQSGAELMKPGASVKISCKAPGNTFSSRWIEWVKERPGHGLEWIGEIFPGNGNTNYNEKFKGKATFTADTSSNTAYIQFSSLASEDSGVYYCVSEDYWGQGTLVTVSS
VL: DIQMTQSPASLSASVGETVTITCRTSGNIRNSLAWYRQKQGKSPQLLVFNGKTLADGVPSRFSGSGSGTQYSLKINSLQPEDLGTYYCQHFWNIPFTFGSGTKLEIKR
notes: also called isoD38-TTR-specific antibody 4D4; TTR mAb 4D4
As for B2, the binding result in test [2] and in test [3] was “no binding (tested: 0.5 µg peptide spotted; antibody 1 µg/mL)” in each case. Also, the Kd in test [5] turned out to be 29000 nM; in test [6], 124 nM.
